In patent publication US8071548B2, “Method of reducing injury to mammalian cells” (Nono, Inc., priority 2002, dated 2011):
No end group written: not given here.

Experiments:
NMDAR/PSD-95 interaction = NMDAR/PSD-95 interaction (Rattus norvegicus, UniProt P31016); type: binding; settings: as compared with controls
[1] = tested on: cultured cortical neurons; assay: Intracellular peptide delivery into cortical neuronal cultures (dansyl fluorescence, confocal microscopy); type: cell-based, mouse; settings: bath applied to cultured cortical neurons; dansyl peptides 10 μM
Description: I bath applied these to cultured cortical neurons and observed their fluorescence by confocal microscopy. […] Tat-NR2B9c-dansyl was detectable in the neurons within 10 min of the start of the application and the peptide accumulated to a maximum level over the next 20 min (FIG. 5C). This level was maintained until the dansyl-Tat-NR2B9c was washed from the bath and the peptide remained detectable within the neurons for more than 5 hours thereafter.

NMDAR/PSD-95 interaction, sequence (P31016 whole entry): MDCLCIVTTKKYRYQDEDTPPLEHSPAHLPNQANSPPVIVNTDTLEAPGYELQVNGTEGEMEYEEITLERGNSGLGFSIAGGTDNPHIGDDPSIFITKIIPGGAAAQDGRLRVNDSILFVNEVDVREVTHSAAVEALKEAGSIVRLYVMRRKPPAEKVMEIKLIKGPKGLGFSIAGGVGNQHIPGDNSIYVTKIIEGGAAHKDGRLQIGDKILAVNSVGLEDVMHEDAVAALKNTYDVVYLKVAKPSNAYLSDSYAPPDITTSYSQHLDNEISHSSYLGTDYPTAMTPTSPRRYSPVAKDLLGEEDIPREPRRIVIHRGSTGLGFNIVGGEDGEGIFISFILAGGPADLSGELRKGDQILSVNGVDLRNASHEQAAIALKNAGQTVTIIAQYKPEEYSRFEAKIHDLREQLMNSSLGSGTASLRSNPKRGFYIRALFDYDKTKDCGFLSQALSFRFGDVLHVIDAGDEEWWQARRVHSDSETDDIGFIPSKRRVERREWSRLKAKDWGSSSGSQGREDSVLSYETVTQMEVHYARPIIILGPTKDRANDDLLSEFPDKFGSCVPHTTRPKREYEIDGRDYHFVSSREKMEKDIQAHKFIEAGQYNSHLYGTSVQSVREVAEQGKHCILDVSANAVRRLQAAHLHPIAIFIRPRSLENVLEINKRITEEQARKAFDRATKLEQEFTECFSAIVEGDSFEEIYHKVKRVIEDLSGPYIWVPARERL

| Sequence | reduction of co-immunoprecipitation of PSD-95 with NR2B (optical density signal) (NMDAR/PSD-95 interaction) | entry into cells / intracellular fluorescence [1] |
| --- | --- | --- |
| KALGISYGRKK [Tat38-48] | none of the three control peptides reduced |  |
| KLSSIESDV [NR2B9c] |  | did not enter cells |
